From patent US20240052006A1 (UNIVERSITY OF CHICAGO, published 2024) come the findings set out here.

The assay deals with T1, mouse plasma-derived SA (mouse SA, Sigma-Aldrich) (mouse, UniProt P07724 25-608).
T1 construct: The SA in the SPR assay was bought (Sigma-Aldrich, plasma-derived, without IL-4); It is not tied to the bought lot by name; also called mouse serum albumin; MSA
Nature of the assay: SPR (Biacore X100): murine FcRn immobilised by amine coupling on a C1 chip, mouse SA flowed at 4000 to 250 nM in pH 5.8 running buffer; Langmuir fit. The procedure: Murine FcRn recombinant protein (Acro Biosystems) was immobilized via amine coupling on a C1 chip (GE Healthcare) for ˜200 resonance units (RU) according to the manufacturer's instructions. SA-IL4 or SA (mouse SA, Sigma-Aldrich) was flowed at decreasing concentrations in the running buffer (0.01 M monobasic anhydrous sodium phosphate, pH 5.8, 0.15 M NaCl) at 30 μl/min. The sensor chip was regenerated with PBS, pH 7.4 for every cycle. Specific bindings of SA fusion proteins to FcRn were calculated by comparison to a non-functionalized channel used as a reference. Experimental results were fitted with Langmuir binding kinetics using BIAevaluation software (GE Healthcare).

B1: Murine FcRn recombinant protein (Acro Biosystems) (receptor, mouse)
chain 1: SETRPPLMYHLTAVSNPSTGLPSFWATGWLGPQQYLTYNSLRQEADPCGAWMWENQVSWYWEKETTDLKSKEQLFLEALKTLEKILNGTYTLQGLLGCELASDNSSVPTAVFALNGEEFMKFNPRIGNWTGEWPETEIVANLWMKQPDAARKESEFLLNSCPERLLGHLERGRRNLEWKEPPSMRLKARPGNSGSSVLTCAAFSFYPPELKFRFLRNGLASGSGNCSTGPNGDGSFHAWSLLEVKRGDEHHYQCQVEHEGLAQPLTVDLDSSARSS
chain 2: IQKTPQIQVYSRHPPENGKPNILNCYVTQFHPPHIEIQMLKNGKKIPKVEMSDMSFSKDWSFYILAHTEFTPTETDTYACRVKHASMAEPKTVYWDRDM
notes: Bought from Acro Biosystems and immobilised by amine coupling on a C1 chip; also called Recombinant mouse FcRn; neonatal Fc receptor
As to B1, the Kd (in general, the equilibrium constant for the complex coming apart) is 294 nM; the koff – broadly, the first-order rate constant of dissociation – worked out at 0.0011 s⁻¹; the kon (usually a measure of how fast the partners come together) was determined as 3700 M⁻¹ s⁻¹.
